Measurements from patent US5977435A, “Plant phosphatases” (Performance Plants, Inc., priority 1997, dated 1999).
Several values for one entry are separate records, joined by “and”; a condition that tells them apart may be missing. Identical values can stand only once.

Columns and labels:
[1] = biological target: T1, potato phosphatase (Solanum tuberosum, UniProt Q6J5M8); experiment: Phosphatase assay B, substrate specificity; details: purified potato phosphatase, assay B, pH 5.8, 25° C
T1 sequence (Q6J5M8 with tags, fused parts or gaps V118I/E238V/S277N/V282G/E319A/A394T/S415A/T416I/D418E/I426Y/H428S/N437A): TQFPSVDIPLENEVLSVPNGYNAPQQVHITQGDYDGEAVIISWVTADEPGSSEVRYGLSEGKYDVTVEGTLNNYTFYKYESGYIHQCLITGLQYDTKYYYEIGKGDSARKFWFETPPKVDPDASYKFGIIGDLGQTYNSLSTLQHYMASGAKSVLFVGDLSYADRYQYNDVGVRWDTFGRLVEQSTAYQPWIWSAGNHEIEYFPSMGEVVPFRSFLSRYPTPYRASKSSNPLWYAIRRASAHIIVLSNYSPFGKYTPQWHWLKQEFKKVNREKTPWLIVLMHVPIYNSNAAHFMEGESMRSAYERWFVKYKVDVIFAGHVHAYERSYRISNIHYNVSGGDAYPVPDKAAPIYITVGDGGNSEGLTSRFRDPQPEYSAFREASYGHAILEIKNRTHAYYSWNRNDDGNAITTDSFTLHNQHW
Protocol: Phosphatase activity was determined using assay B and a wide range of compounds, tested at a total concentration of 5 mM unless otherwise specified.
(§1) Phosphatase (0.05 units) was incubated in 1.5 mL cuvettes with 0.9 mL of 50 mM MES-NaOH (pH 5.8) containing 4 mM MgCl2 and an alternative substrate (5 mM unless otherwise indicated) for 6 min at 25° C. Reactions were terminated by the sequential addition of 0.1 mL reagent A (3 M H2 SO4 containing 20 mM ammonium molybdate) and […] of 1% (v/v) Triton X-100. Samples were incubated at 25° C. for 20 min and the A660 was determined. To calculate activities, a standard curve over the range of […] Pi was constructed for each set of assays. Assays were performed in triplicate and controls were run for background amounts of Pi present at each substrate concentration by adding reagent A before the enzyme.

[2] = biological target: minor 28-kD potato tuber phosphatase isoform; details: cited from earlier work
[3] = tested on: P-Tyr phosphatase from Escherichia coli; details: E. coli P-Tyr phosphatase; cited from earlier work
[4] = biological target: potato tuber phosphatase (PTAP) (potato (Solanum tuberosum L. cv. Chiefton))
[5] = biological target: egg yolk storage phosphoprotein, phosvitin (Gallus gallus (Chicken)) (UniProt P02845)
[6] = substrate: O=[N+]([O-])c1ccc(OP(=O)(O)O)cc1; experiment: purified protein, by the assay type; details: other: apparent Km, purified potato phosphatase, assay B; pH 5.8; 25.0 °C
[7] = substrate: Nc1ncnc2c1ncn2[C@@H]1O[C@H](COP(=O)(O)OP(=O)(O)OP(=O)(O)O)[C@@H](O)[C@H]1O; experiment: purified protein, by the assay type; details: other: apparent Km, purified potato phosphatase, assay B; pH 5.8; 25.0 °C
Protocol: (§3) Phosphatase (0.05 units) was incubated in 1.5 mL cuvettes with 0.9 mL of 50 mM MES-NaOH (pH 5.8) containing 4 mM MgCl2 and an alternative substrate (5 mM unless otherwise indicated) for 6 min at 25° C. Reactions were terminated by the sequential addition of 0.1 mL reagent A (3 M H2 SO4 containing 20 mM ammonium molybdate) and 10 ml of 1% (v/v) Triton X-100. Samples were incubated at 25° C. for 20 min and the A660 was determined. To calculate activities, a standard curve over the range of 0.01 to 1.0 mmol Pi was constructed for each set of assays. Assays were performed in triplicate and controls were run for background amounts of Pi present at each substrate concentration by adding reagent A before the enzyme. Hydrolysis was proportional to enzyme concentrations between 0.005 to 0.1 units/mL and remained linear with time for at least 15 min.
(§4) All kinetic parameters are the means of duplicate determinations performed on two separate preparations of the purified enzyme, and are reproducible to within ±10% SE.

[8] = substrate: C=C(OP(=O)(O)O)C(=O)O; experiment: purified protein, by the assay type; details: other: apparent Km, purified potato phosphatase, assay B; pH 5.8; 25.0 °C
[9] = substrate: NC(COP(=O)(O)O)C(=O)O; experiment: purified protein, by the assay type; details: other: apparent Km, purified potato phosphatase, assay B; pH 5.8; 25.0 °C
[10] = substrate: N[C@@H](Cc1ccc(OP(=O)(O)O)cc1)C(=O)O; experiment: purified protein, by the assay type; details: other: apparent Km, purified potato phosphatase, assay B; pH 5.8; 25.0 °C
Protocol: as §3, §4

[11] = Heat-stability of the phosphatase; assay type: physicochemical
Protocol: The phosphatase was relatively heat-stable, losing 0, 52, and 90% of its original activity when incubated for 4 min at 65, 70 and 75° C., respectively.

[12] = biological target: T1, potato phosphatase; experiment: Effect of pH on phosphatase activity (assay A with PEP); assay type: biochemical; parameters: mature chain from Thr30, C-terminus not determined; details: pH/activity profile
Protocol: Unless otherwise stated all kinetic studies of the potato phosphatase were performed with PEP using assay A (infra).
All subsequent kinetic studies were carried out at pH 5.8.
(§2) Assays were initiated by the addition of enzyme preparation. One unit of phosphatase activity is defined as the quantity of enzyme that would catalyze the hydrolysis of 1 […] of substrate/min at 25° C.

[13] = biological target: T1, potato phosphatase; experiment: Specific activity of purified potato tuber phosphatase; assay type: biochemical; parameters: mature chain from Thr30, C-terminus not determined
Protocol: As an initial step towards the isolation of plant phosphatase genes, the predominant phosphatase from potato tuber was purified to a final P-Tyr-hydrolyzing specific activity of 1917 units/mg (Gellatly et al, 1994). Only a single peak of activity was recovered following chromatography on columns of S-Sepharose, phosphocellulose and Phenyl Superose (Gellatly et al, 1994). One unit is defined as the μmoles of Pi produced per min at 25° C. The enzyme was purified 2289-fold to a final PEP-hydrolyzing specific activity of 618 units/mg and an overall recovery of 31% (Gellatly et al, 1994). With P-Tyr as substrate the final specific activity was increased to approximately 1900 units/mg (Table 1). This final specific activity was higher than any reported for a purified plant phosphatase (Duff et al, 1994).
as §2
as §1, with “enzyme. Hydrolysis was proportional to enzyme concentrations between 0.005 to 0.1 units/mL and remained linear with time for at least 15 min.” for “enzyme.”
Potato tuber phosphatase was purified by the method of Gellatly et al. (1994).

[14] = tested on: potato tuber phosphotyrosyl proteins; experiment: Dephosphorylation of potato tuber phosphotyrosyl proteins by potato tuber phosphatase; assay type: biochemical, Solanum tuberosum; details: + 30 units/mL phosphatase
Protocol: A desalted potato tuber extract was incubated at 25° C. in the absence (-) and presence (+) of 30 units/mL purified potato tuber phosphatase. Aliquots were removed at 2 and 19 h and analyzed by immunoblotting using anti-(P-Tyr) IgG (Kamps and Sefton, 1988). The relative P-Tyr content of the 7 antigenic polypeptides was estimated by laser densitometric quantification of the immunoblots as described in the examples. Unless otherwise noted, all values represent the means±SE of triplicate determinations. ^a, the mean of duplicate determinations.
Electroblotting was performed by the method of Moorhead and Plaxton (1990), with the addition of […] o-vanadate to the transfer buffer when maintenance of phosphotyrosyl residues was desired. All immunoblots to be probed with the anti-(black mustard PEP-specific phosphatase) IgG (Duff et al, 1991a) were first pre-treated with sodium m-periodate according to Laine (1988) so as to oxidize antigenic oligosaccharide chains of endogenous tuber glycoproteins. Immunological detection of phosphotyrosylated tuber proteins using anti-(P-Tyr) IgG (Kamps and Sefton, 1988) was performed as referenced above except that the blocking buffer contained 5% (w/v) bovine serum albumin (fraction V) and 1% (w/v) ovalbumin instead of 3% (w/v) defatted milk powder.
Antigenic polypeptides were visualized using an alkaline-phosphatase-taggedsecondary antibody (Moorhead and Plaxton, 1990). Immunological specificities were confirmed by performing immunoblots in which rabbit preimmune serum was substituted for the affinity-purified IgGs. An LKB Ultroscan XL Enhanced Laser Densitometer was used to scan indicated immunoblots. Densitometric data were analysed using the LKB Gelscan XL software (version 2.1). Immunoreactive polypeptides were quantified in terms of their relative absorbance at 633 nm wavelength (A633).
Peeled and diced potato tuber tissue (5 g) was homogenized with a Polytron in 1 volume of 100 mM MES-NaOH (pH 5.8) containing 2 mM PMSF, 2 mM DTT, and 1 mM EDTA. The homogenate was centrifuged for 10 min at 13,000 g in an Eppendorf microfuge, and a 3-mL aliquot of the supernatant fluid was passed at 4° C. through a BioRad Econo-Pac 10DG desalting column that had been pre-equilibrated in homogenization buffer lacking PMSF. Aliquots (0.1 mL) of the desalted crude extract were incubated at 25° C. with and without 3 units of the purified potato phosphatase. Samples were removed at 0, 2 and 19 h and analyzed by immunoblotting using the anti-(P-Tyr) IgG as described supra. Laser densitometric scanning and immunoquantification of the blots was performed as described supra.

NC(COP(=O)(O)O)C(=O)O (stereo not drawn) [P-Ser]
Vmax [1]: 389 units/mg | dephosphorylation by the minor 28-kD isoform [2]: inability to catalyze dephosphorylation

N[C@@H](Cc1ccc(OP(=O)(O)O)cc1)C(=O)O [P-Tyr, o-phospho-L-tyrosine]
Km [3]: > 6000 µM

egg yolk storage phosphoprotein, phosvitin (from UniProt P02845)
Relative Activity (%) of potato phosphatase with 0.25 mM PEP [4]: 19%

potato tuber phosphatase (PTAP) (enzyme)
phosphoprotein phosphatase activity [5]: 220 units/mg

B1: potato phosphatase (Solanum tuberosum) (protein)
chain: TQFPSVDIPLENEVLSVPNGYNAPQQVHITQGDYDGEAVIISWVTADEPGSSEVRYGLSEGKYDVTVEGTLNNYTFYKYESGYIHQCLITGLQYDTKYYYEIGKGDSARKFWFETPPKVDPDASYKFGIIGDLGQTYNSLSTLQHYMASGAKSVLFVGDLSYADRYQYNDVGVRWDTFGRLVEQSTAYQPWIWSAGNHEIEYFPSMGEVVPFRSFLSRYPTPYRASKSSNPLWYAIRRASAHIIVLSNYSPFGKYTPQWHWLKQEFKKVNREKTPWLIVLMHVPIYNSNAAHFMEGESMRSAYERWFVKYKVDVIFAGHVHAYERSYRISNIHYNVSGGDAYPVPDKAAPIYITVGDGGNSEGLTSRFRDPQPEYSAFREASYGHAILEIKNRTHAYYSWNRNDDGNAITTDSFTLHNQHW
Km [6]: 1100 µM | Km [7]: 2160 µM | Vmax [7]: 368 units/mg | Km [8]: 1520 µM | Km [9]: 620 µM | Km [10]: 990 µM | Vmax [10]: 1917 units/mg

B2: PTAP: potato tuber acid phosphatase purified from Solanum tuberosum tubers; 57 and 55 kD subunits (protein)
chain: TQFPSVDIPLENEVLSVPNGYNAPQQVHITQGDYDGEAVIISWVTADEPGSSEVRYGLSEGKYDVTVEGTLNNYTFYKYESGYIHQCLITGLQYDTKYYYEIGKGDSARKFWFETPPKVDPDASYKFGIIGDLGQTYNSLSTLQHYMASGAKSVLFVGDLSYADRYQYNDVGVRWDTFGRLVEQSTAYGPWIWSAGNHEIEYFPSMGEVVPFRSFLSRYPTPYRASKSSNPLWYAIRRASAHIIVLSNYSPFGKYTPQWHWLKQEFKKVNREKTPWLIVLMHVPIYNSNAAHFMEGESMRSAYERWFVKYKVDVIFAGHVHAYERSYRISNIHYNVSGGDAYPVPDKAAPIYITVGDGGNSEGLTSRFRDPQPEYSAFREASYGHAILEIKNRTHAYYSWNRNDDGNAITTDSFTLHNQHW
loss of original activity ([11]; incubated 4 min at 65° C): 0% | loss of original activity ([11]; incubated 4 min at 70° C): 52% | loss of original activity ([11]; incubated 4 min at 75° C): 90% | pH of maximum activity [12]: ~5.8 | pH of half-maximal activity ([12]; listed as potato phosphatase): 4.9 and 6.7 | o-phospho-L-tyrosine (P-Tyr) hydrolyzing specific activity ([13]; final purified preparation): 1917 μmol Pi produced min^-1 mg^-1 of protein | PEP-hydrolyzing specific activity ([13]; final purified preparation, substrate PEP): 618 units/mg | p-nitrophenyl phosphate-hydrolyzing specific activity ([13]; purified PTAP sample used for microprobe analysis): 618 units/mg | Relative phosphotyrosyl content after incubation at 25° C ([14]; 20 kD polypeptide, 2h): 66 ± 5 % initial value | Relative phosphotyrosyl content after incubation at 25° C ([14]; 20 kD polypeptide, 19h): 12 ± 3 % initial value | Relative phosphotyrosyl content after incubation at 25° C ([14]; 34 kD polypeptide, 2h): 40 ± 3 % initial value | Relative phosphotyrosyl content after incubation at 25° C ([14]; 34 kD polypeptide, 19h): 16 + 2 % initial value | Relative phosphotyrosyl content after incubation at 25° C ([14]; 85 kD polypeptide, 2h): 69 ± 2 % initial value | Relative phosphotyrosyl content after incubation at 25° C ([14]; 85 kD polypeptide, 19h): 34 ± 2 % initial value | Relative phosphotyrosyl content after incubation at 25° C ([14]; 102 kD polypeptide, 2h): 60 ± 5 % initial value | Relative phosphotyrosyl content after incubation at 25° C ([14]; 102 kD polypeptide, 19h): 36 ± 3 % initial value | Relative phosphotyrosyl content after incubation at 25° C ([14]; 228.5 kD polypeptide, 2h): 65 ± 2 % initial value | Relative phosphotyrosyl content after incubation at 25° C ([14]; 228.5 kD polypeptide, 19h): 28 ± 3 % initial value
